From FireProtDB (doi:10.1021/bi00116a007)

B1: Aspartate aminotransferase, P00509 (parent)
chain: MFENITAAPADPILGLADLFRADERPGKINLGIGVYKDETGKTPVLTSVKKAEQYLLENETTKNYLGIDGIPEFGRCTQELLFGKGSALINDKRARTAQTPGGTGALRVAADFLAKNTSVKRVWVSNPSWPNHKSVFNSAGLEVREYAYYDAENHTLDFDALINSLNEAQAGDVVLFHGCCHNPTGIDPTLEQWQTLAQLSVEKGWLPLFDFAYQGFARGLEEDAEGLRAFAAMHKELIVASSYSKNFGLYNERVGACTLVAADSETVDRAFSQMKAAIRANYSNPPAHGASVVATILSNDALRAIWEQELTDMRQRIQRMRQLFVNTLQEKGANRDFSFIIKQNGMFSFSGLTKEQVLRLREEFGVYAVASGRVNVAGMTPDNMAPLCEAIVAVL

Variants of: B1
Settings: Escherichia coli (strain K12); pH 7.5; 25 °C; Urea; DSC; potassium-HEPES 40 mM; reversible: yes; structure 1AMQ; whole UniProt chain shown

## C389A
  ddG of mutation (higher = less stable): -3.2 kcal/mol
  denaturant m value: 3.87 kcal/mol/M
  denaturant midpoint (higher = more stable): 3.41 M
  unfolding free energy: 13.2 kcal/mol

## C77A C180A C181A C258A C389A
  ddG of mutation (higher = less stable): 1 kcal/mol
  denaturant m value: 2.83 kcal/mol/M
  denaturant midpoint (higher = more stable): 3.16 M
  unfolding free energy: 8.92 kcal/mol

## C77A
  ddG of mutation (higher = less stable): 1.3 kcal/mol
  denaturant m value: 2.13 kcal/mol/M
  denaturant midpoint (higher = more stable): 4.06 M
  unfolding free energy: 8.67 kcal/mol

## C181A
  ddG of mutation (higher = less stable): 1.6 kcal/mol
  denaturant m value: 2.35 kcal/mol/M
  denaturant midpoint (higher = more stable): 3.53 M
  unfolding free energy: 8.32 kcal/mol

## C180S
  ddG of mutation (higher = less stable): 1.8 kcal/mol
  denaturant m value: 2.38 kcal/mol/M
  denaturant midpoint (higher = more stable): 3.41 M
  unfolding free energy: 8.12 kcal/mol

## C180A
  ddG of mutation (higher = less stable): 2.2 kcal/mol
  denaturant m value: 2 kcal/mol/M
  denaturant midpoint (higher = more stable): 3.87 M
  unfolding free energy: 7.74 kcal/mol

## C258A
  ddG of mutation (higher = less stable): 2.5 kcal/mol
  denaturant m value: 2.14 kcal/mol/M
  denaturant midpoint (higher = more stable): 3.51 M
  unfolding free energy: 7.5 kcal/mol
